Data as given in patent US20240158497A1 (published 2024).

B1: MAb16622 (antibody, V domains shown)
VH: EVQLVESGGGVVRPGGSLRLSCTASGFTFDDYGMSWVRQAPGKGLEWVSGINWNGGRTEYADAVKGRFIISRDNAKNSLYLQMNSLRAEDTALYFCARTELRWDYWGQGTLVTVSS
VL: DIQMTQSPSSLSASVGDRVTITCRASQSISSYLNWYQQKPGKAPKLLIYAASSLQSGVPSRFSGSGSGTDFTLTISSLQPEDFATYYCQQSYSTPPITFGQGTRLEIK
notes: hIgG4 isotype control used
B2: MAb16656 (antibody, V domains shown)
VH: EVQLVESGGGLVQPGRSLRLSCAASGFTLDDFAMHWVRQAPGKGLEWVSGISWNSGNIGYADSVKGRFTISRDNARNSLYLQMNSLRAEDTALYYCTSGYYLYYAMDVWGQGTTVTVSS
VL: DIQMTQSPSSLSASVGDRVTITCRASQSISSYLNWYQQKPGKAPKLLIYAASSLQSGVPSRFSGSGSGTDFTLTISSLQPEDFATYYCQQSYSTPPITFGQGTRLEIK
notes: hIgG4 isotype control used
B3: MAb16682 (antibody, V domains shown)
VH: EVQLVESGGGLVQPGGSLRLSCAASGFTFSTYWMNWVRQAPGKGLEWVANIKEDGSEKYYVDSVKGRFTISRDNAKNSLYLQMNSLRAEDTAVYYCAREGFGVVTYIWGQGTMVTVSS
VL: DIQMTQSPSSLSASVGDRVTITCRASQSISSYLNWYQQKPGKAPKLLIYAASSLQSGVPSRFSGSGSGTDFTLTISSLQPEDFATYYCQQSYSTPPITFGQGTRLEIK
notes: hIgG4 isotype control used
B4: MAb16666 (antibody, V domains shown)
VH: EVQLVESGGGLVQSGGSLRLSCAASGFTFSRYEMNWVRQAPGKGLEWVAYISNTGTTRDYSDSVKGRFTISRDNAKNSLYLQMSSLRVEDTAVYYCVREKFSGTSDWFDPWGQGTLVTVSS
VL: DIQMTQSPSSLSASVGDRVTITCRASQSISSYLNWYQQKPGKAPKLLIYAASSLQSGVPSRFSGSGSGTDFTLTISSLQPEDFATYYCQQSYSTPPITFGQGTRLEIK
notes: hIgG4 isotype control used
B5: MAb16623 (antibody, V domains shown)
VH: EVQLVESGGGLVQPGGSLRLSCAASGLTFSSYEMNWVRQAPGKGLEWVSHISSAGSTKYYADSVKGRFTISRDNAKNSLFLQMNSLRAEDTAIYYCAGYNYAYYYFGVDVWGQGTTVTVSS
VL: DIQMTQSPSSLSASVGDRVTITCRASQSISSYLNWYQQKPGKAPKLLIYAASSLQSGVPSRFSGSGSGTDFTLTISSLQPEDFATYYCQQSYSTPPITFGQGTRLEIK
notes: hIgG4 isotype control used
B6: MAb16659 (antibody, V domains shown)
VH: QVQLVQSGPEVKKPGSSVKVSCKASGGTIDRNEITWVRQAPGQGLEWMGVIIPILGEAHYERKFQGRLTITMDESTSTAYMELSNLRSEDTAVYYCARERAARGYLDYWGQGTLVTVSS
VL: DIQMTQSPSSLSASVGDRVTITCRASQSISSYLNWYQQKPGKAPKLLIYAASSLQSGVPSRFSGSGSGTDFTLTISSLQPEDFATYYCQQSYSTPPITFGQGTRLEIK
notes: hIgG4 isotype control used
B7: MAb16664 (antibody, V domains shown)
VH: QVQLVQSGTEVKKPGSSVKVSCKASGGTFSTYPINWVRQAPGQGLEWMGGIIPIFGTASYAQKFQGRVAITTDESTSTAYMELNSLRSEDTAVYYCARERPNWGSNDYWGQGTLVTVSS
VL: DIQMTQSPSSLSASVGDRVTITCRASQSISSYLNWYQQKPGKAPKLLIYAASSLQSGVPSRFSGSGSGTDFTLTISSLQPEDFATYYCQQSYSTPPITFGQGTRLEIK
notes: hIgG4 isotype control used
B8: MAb16676 (antibody, V domains shown)
VH: QVQLVQSGAEVMKPGASVKVSCRASGYTFSSYDINWVRQAPGQGLEWMGWISTATGNTNYPQKVQGRVTMTTDTSTNTAYMELRSLRSDDTAVYYCTREGNSKGWLDPWGQGTLVTVSS
VL: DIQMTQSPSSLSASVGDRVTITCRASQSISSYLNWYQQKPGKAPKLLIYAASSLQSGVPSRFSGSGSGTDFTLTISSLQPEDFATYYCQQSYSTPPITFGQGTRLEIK
notes: hIgG4 isotype control used
B9: MAb16683 (antibody, V domains shown)
VH: QVQLVESGGGLVKPGGSLRLSCAASGFTFSDYYMTWIRQTPGKGLDWVSYISSSGTNKYNADSVKGRFTISRDNAKNSLYLQMNSLRAEDTAVYYCVRDPPWGMDVWGQGTTVTVSS
VL: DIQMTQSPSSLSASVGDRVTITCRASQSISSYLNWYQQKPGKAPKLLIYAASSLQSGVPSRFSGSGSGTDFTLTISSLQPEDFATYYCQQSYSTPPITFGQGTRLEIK
notes: hIgG4 isotype control used
B10: MAb16637 (antibody, V domains shown)
VH: QVQLVQSGAEVKKPGASVKVSCKASGYTFTSLGISWVRQAPGQGLEWMGWISAYSGNRDYAQKFQGRVTMTTDTSTSTAYMELRSLRSDDTAVYYCARSLRFDYWGQGTLVTVSS
VL: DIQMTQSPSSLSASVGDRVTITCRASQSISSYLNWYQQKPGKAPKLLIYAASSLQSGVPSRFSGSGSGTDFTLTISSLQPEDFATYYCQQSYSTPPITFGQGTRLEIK
notes: hIgG4 isotype control used
B11: MAb16618 (antibody, V domains shown)
VH: QVQLQESGPGLVKPSETLSLTCTVSGGSISNYYWTWIRQPPGKGLEWIGHISNSGTTNYNPSLKSRVTISVDTSKNQFSLKLTSVTAADTAVYYCARLPLGIAAVDTDYYYYFGMDVWGQGTTVTVSS
VL: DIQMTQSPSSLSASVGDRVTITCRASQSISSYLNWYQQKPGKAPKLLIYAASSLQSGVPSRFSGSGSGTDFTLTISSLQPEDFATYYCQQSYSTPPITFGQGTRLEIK
notes: hIgG4 isotype control used
B12: MAb16662 (antibody, V domains shown)
VH: EVQLVESGGGLVQPGGSLRLSCTASGFTFSNYAIFWVRQAPGKGLEYVSGISNNGVTKYYADSVRDRFTISRDNSRNTVSIQMDSLRTEDMAVYYCARENWGSDDGFDIWGQGTMVTVSS
VL: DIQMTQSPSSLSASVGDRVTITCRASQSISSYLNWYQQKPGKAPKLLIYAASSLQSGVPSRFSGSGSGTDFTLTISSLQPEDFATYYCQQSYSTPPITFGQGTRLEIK
notes: hIgG4 isotype control used
B13: MAb16673 (antibody, V domains shown)
VH: EVQLVQSGAEVKKPGESLKISCKGSGYSFTSYWIDWVRQMPGKGLEWMGIIYPDDSDTRYSPSFQGQVTMSVDKSISTAYLQWSSLKASDTAIYYCARHERGIVEAGTDYYYYYGMDVWGQGTTVTVSS
VL: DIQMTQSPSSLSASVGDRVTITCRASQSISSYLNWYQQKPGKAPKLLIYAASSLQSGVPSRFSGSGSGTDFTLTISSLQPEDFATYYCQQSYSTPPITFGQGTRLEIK
notes: hIgG4 isotype control used
B14: MAb16665 (antibody, V domains shown)
VH: QVQLVESGGGVVQPGRSLRLACAASGFTFRSYGMHWVRQAPGKGLEWVAVIWYDGSNKYYTDSVKGRFTISRDNSKNTLYLQMNSLRAEDTAMYYCAIDKWATVTTYLFDYWGQGTLVTVSS
VL: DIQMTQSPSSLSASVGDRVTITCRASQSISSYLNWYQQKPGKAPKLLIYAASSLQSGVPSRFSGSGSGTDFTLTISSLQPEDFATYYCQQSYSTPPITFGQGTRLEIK
notes: hIgG4 isotype control used
B15: MAb16614 (antibody, V domains shown)
VH: QVQLVESGGGVVQPGGSLRLSCAASGFTFSTYDIHWVRQAPGKGLEWVAVISFDGSNRNYGDSVKGRFTISRDNSDNTLFLEMNNLRFEDTAVYYCAKEGYGVDFQHWGQGTLVTVSS
VL: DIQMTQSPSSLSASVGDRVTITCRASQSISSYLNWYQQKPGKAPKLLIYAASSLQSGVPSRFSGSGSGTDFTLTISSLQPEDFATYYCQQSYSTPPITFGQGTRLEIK
notes: hIgG4 isotype control used
B16: MAb16669 (antibody, V domains shown)
VH: EVQLVESGGGLVQPGGSLRLSCAASGFTFSSYAMNWVRQAPGKGLEWVSAISGSGDSTYYTDSVKGRFTISRDNSKNTLYLQMNTLRAEDTAVYYCAKEEIVMLVGATPGWFDPWGQGTLVTVSS
VL: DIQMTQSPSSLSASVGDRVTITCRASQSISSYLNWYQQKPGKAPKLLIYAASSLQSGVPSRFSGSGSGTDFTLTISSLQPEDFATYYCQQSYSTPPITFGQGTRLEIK
notes: hIgG4 isotype control used
B17: MAb16636 (antibody, V domains shown)
VH: QLQLQESGPGLVKPSETLSLICTVSGGSISSNNYYWGWIRQPPGKGLEWIGNLYGSGSTYYNPSLKSRVTISVDTSKNQFSLKLSFVTAADTAVYHCARWDTNGGAFDIWGQGTMVTVSS
VL: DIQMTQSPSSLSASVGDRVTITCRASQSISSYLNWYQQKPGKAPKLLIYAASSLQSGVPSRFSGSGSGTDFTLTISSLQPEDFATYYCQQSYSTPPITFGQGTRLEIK
notes: hIgG4 isotype control used

Target: T1, human gp130 extracellular domain (E23-E619) with C-terminal mouse IgG2a Fc (human)
T1 construct: dimeric; also called hGP130-mFc; human GP130-mFc
T1 chain: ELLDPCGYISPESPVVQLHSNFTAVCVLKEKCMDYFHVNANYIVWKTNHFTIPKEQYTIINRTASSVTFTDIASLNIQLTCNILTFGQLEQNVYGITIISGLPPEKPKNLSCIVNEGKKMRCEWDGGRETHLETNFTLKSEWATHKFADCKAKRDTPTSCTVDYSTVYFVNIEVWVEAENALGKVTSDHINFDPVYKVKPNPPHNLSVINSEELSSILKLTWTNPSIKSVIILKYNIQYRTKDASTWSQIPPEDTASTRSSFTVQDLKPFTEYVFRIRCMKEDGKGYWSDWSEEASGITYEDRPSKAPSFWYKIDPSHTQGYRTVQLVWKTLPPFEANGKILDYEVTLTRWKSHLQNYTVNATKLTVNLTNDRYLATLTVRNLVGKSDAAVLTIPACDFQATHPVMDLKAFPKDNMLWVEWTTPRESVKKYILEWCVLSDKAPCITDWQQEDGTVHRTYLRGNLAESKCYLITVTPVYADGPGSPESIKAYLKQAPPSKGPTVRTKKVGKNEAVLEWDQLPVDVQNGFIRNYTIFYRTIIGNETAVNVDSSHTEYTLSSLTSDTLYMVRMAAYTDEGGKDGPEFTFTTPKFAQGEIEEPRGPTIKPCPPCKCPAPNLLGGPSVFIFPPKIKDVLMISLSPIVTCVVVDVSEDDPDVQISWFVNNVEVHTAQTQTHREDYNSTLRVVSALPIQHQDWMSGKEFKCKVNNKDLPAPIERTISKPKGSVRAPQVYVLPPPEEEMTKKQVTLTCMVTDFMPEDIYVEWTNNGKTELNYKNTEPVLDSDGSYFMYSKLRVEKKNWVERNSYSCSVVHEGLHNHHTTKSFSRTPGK
Experiment: blocking ELISA, 2.5 nM hGP130-mFc on plate-bound CNTFR/CNTF complex
Procedure: The experiment was carried out using the following procedure. Human CNTFRα was coated at a concentration of […] in HBSS on a 96-well microtiter plate overnight at 4° C. […] Human CNTF at a concentration of 1 μg/ml in HBSS was added to the plate bound CNTFRα for 1 hour at room temperature. In separate dilution plates, a constant amount of 2.5 nM of human GP130-mFc protein was titrated with antibodies ranging from 3.4 pM to 200 nM in serial dilution and with no antibody present. These solutions were incubated for 1 hour at room temperature (RT) and subsequently transferred to the microtiter plates with CNTFRα/CNTF complex without washing. The plates were incubated for 2 hours at RT, washed with PBST buffer, and plate-bound hGP130-mFc was detected with an anti-mFc polyclonal antibody conjugated with horseradish peroxidase (HRP) (Jackson ImmunoResearch Inc). Samples were developed with a TMB solution (BD Biosciences, substrate A and B mixed at 1:1 ratio as per manufacturer's instructions) to produce a colorimetric reaction and then neutralized with 1M sulfuric acid before measuring absorbance at 450 nm on a Victor X5 plate reader.
Data analysis was performed using a sigmoidal dose-response model within Prism™ software (GraphPad). […] Percent blockade at maximum concentration tested was calculated as an indicator of the ability of the antibodies to block binding of GP130 to CNTFRα/CNTF on the plate as determined from the dose curve. The ratio of the reduction in signal observed in the presence of the highest tested concentration of 200 nM antibody, relative to the difference between the signal with 2.5 nM GP130 with no antibody (0% blocking) and the background signal from HRP-conjugated secondary antibody alone (100% blocking), was subtracted from 100% blocking.

Binder	Max Blocking of Antibody at 200 nM (%)	IC50 [nM]
B1	-84.1	
B2	-24.7	
B3	-3.39	
B4	103	
B5	-49.2	
B6	-18.8	
B7	-46.5	
B8	-15.4	
B9	-22.8	
B10	-38.9	
B11	86.7	2.37
B12	81.9	6.51
B13	104	2.37
B14	-47.1	
B15	-14.8	
B16	47.1	12.3
B17	94.8	1.1
